Data reported in US20140087995A1 (published 2014).
Numbered stars: 1 amine (or outer) side, 2 acyl side, 3 side chain; on linkers, the order of the positions; unused ones are H or OH. Bridge positions count the residues as written; N and C are the ends. Side chains are listed from the residue outwards. Ends that are not written are not given here. * marks the point of attachment. C20 diacid = O=C(O)CCCCCCCCCCCCCCCCCCC(=O)*; γGlu = O=C(O)[C@H](CCC(=O)[*:2])N[*:1]; AEEA = NCCOCCOCC(=O)O

T1: rat calcitonin receptor (rat, UniProt P32214 25-516)
T1 construct: whole, on cells; Cell membranes of transiently transfected BHK tk'ts 13 cells (Assay VIII); also called rCTR; rCT
T1 sequence (looked up): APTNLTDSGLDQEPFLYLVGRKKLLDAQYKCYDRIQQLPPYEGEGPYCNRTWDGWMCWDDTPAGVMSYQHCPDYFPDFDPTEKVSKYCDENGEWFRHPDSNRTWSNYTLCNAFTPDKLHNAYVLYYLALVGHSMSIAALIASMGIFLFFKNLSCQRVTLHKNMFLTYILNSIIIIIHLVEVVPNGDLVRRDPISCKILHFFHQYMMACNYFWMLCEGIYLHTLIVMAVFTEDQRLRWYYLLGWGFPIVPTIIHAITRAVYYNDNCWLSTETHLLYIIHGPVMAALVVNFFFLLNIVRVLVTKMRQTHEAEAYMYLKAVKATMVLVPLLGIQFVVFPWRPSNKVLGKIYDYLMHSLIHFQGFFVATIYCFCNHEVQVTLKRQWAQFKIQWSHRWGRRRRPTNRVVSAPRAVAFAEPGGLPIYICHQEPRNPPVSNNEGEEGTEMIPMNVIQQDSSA

T2: human calcitonin receptor (human, UniProt P30988 25-474)
T2 construct: whole, on cells; Cell membranes of a stably transfected BHK cell line (Assay VII); also called hCTR; hCT
T2 sequence (looked up): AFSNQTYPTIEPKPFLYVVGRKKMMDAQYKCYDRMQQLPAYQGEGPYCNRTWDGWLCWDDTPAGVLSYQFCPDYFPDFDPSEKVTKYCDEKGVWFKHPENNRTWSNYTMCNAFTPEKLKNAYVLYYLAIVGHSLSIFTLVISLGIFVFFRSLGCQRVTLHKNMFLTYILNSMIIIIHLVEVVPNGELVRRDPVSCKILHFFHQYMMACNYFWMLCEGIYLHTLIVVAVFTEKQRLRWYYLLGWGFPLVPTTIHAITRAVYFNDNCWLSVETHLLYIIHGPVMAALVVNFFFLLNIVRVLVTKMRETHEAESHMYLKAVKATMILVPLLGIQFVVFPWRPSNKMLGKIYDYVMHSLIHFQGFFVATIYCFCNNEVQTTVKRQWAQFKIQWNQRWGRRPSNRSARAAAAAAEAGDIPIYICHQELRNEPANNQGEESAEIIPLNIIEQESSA

T3: rat amylin receptor (rat calcitonin receptor + rat RAMP 3) (rat, UniProt P32214 25-516; Q9JJ73 23-147)
T3 construct: whole, on cells; Cell membranes of transiently transfected BHK tk'ts 13 cells (Assay VI); also called rAmylin-R; rat amylin 3(a) receptor
T3 sequence (looked up) 1: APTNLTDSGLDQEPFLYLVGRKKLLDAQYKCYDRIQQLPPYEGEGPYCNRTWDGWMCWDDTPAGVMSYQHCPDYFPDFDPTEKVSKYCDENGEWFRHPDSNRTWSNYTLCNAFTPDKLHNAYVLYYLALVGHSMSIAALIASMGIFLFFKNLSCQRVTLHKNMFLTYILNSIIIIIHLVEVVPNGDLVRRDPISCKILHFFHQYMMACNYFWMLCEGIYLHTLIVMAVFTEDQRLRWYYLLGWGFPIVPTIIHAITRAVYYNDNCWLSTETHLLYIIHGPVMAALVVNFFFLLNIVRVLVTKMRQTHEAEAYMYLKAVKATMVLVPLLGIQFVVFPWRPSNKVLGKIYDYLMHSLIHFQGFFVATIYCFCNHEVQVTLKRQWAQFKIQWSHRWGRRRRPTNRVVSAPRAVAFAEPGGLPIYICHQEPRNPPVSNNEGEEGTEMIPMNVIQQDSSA
T3 sequence (looked up) 2: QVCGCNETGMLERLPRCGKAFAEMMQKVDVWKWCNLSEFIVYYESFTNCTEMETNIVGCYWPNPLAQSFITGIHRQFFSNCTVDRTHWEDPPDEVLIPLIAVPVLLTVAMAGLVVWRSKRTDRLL


Assays:
rat calcitonin receptor [1] = molecular target: T1, rat calcitonin receptor; assay: ratio IC50 rat calcitonin receptor / IC50 rat amylin receptor
[2] = molecular target: T2, human calcitonin receptor; assay: ratio IC50 human calcitonin receptor / IC50 human amylin receptor
Description: The resulting pellet was resuspended, homogenized and centrifuged (20.000 rpm, 15 min) in a buffer containing 20 mM Na-HEPES and 0.1 mM EDTA (pH 7.4, buffer 2). The resulting pellet was resuspended in buffer 2 and protein concentration was measured (BCA protein Assay, Pierce). The homogenate was kept cold during the whole procedure. The membranes were kept at −80° C. until use. The assay was performed in a 384 well Optiplate (PerkinElmer) in a total volume of 40 ul. Membranes were mixed with SPA beads. Final concentration of membranes 35 ng/μL final and SPA beads was 0.05 mg/well. Test-compounds were dissolved in DMSO and further diluted in assay buffer (50 mM Hepes, pH 7.4, 1 mM CaCl2, 5 mM MgCl₂, 0.1% OA and 0.02% Tween20). […] The final mixture was incubated with shaking at 400 rpm for 120 min at 25° C. prior to centrifugation (1500 rpm, 10 min). Samples were analyzed on TopCounter™ (Packard). The IC₅₀ was calculated using (one site binding competition analysis) GraphPad Prism5 as a measure of receptor affinity.
Membranes were prepared in the following way; the cells were rinsed with PBS and incubated with Versene for approximately 5 min before harvesting. The cells were flushed with PBS and the cell-suspension was centrifuged for 5 min at 1000 rpm. Cells were homogenized (Ultrathurrax) in a buffer containing 20 mM Na-HEPES and 10 mM EDTA (pH 7.4) and centrifuged at 20.000 rpm for 15 min. The resulting pellet was resuspended, homogenized and centrifuged (20.000 rpm, 15 min) in a buffer containing 20 mM Na-HEPES and 0.1 mM EDTA (pH 7.4, buffer 2). The resulting pellet was resuspended in buffer 2 and protein concentration was measured (BCA protein Assay, Pierce). The homogenate was kept cold during the whole procedure. The membranes were kept at −80° C. until use. Assay was performed in a 384 well Optiplate (PerkinElmer) in a total volume of 40 ul. Membranes were mixed with SPA beads.

rat calcitonin receptor [3] = molecular target: T1, rat calcitonin receptor; assay: SPA competition vs 125I-calcitonin, membranes with rat CTR (Assay VIII)
[4] = molecular target: T3, rat amylin receptor (rat calcitonin …); assay: SPA competition vs 125I-rat amylin, membranes with rat CTR + rat RAMP3 (Assay VI)

Ratio rCT/rAmylin binding (rat calcitonin receptor [1])	Ratio hCT/hAmylin binding [2]	IC50 (rat calcitonin receptor [3])	IC50 [4]	Binder
28.5	12.3	62.5 nM	2.19 nM	{C20 diacid-γGlu}-KCNTATCATQRLAEFLRHSSPNFGAIPSSTNVGSETY-NH2 (disulfide 2-7; SMILES CC[C@H](C)[C@H](NC(=O)[C@H](C)NC(=O)CNC(=O)[C@H](Cc1ccccc1)NC(=O)[C@H](CC(N)=O)NC(=O)[C@@H]1CCCN1C(=O)[C@H](CO)NC(=O)[C@H](CO)NC(=O)[C@H](Cc1c[nH]cn1)NC(=O)[C@H](CCCNC(=N)N)NC(=O)[C@H](CC(C)C)NC(=O)[C@H](Cc1ccccc1)NC(=O)[C@H](CCC(=O)O)NC(=O)[C@H](C)NC(=O)[C@H](CC(C)C)NC(=O)[C@H](CCCNC(=N)N)NC(=O)[C@H](CCC(N)=O)NC(=O)[C@@H](NC(=O)[C@H](C)NC(=O)[C@@H]1CSSC[C@H](NC(=O)[C@H](CCCCN)NC(=O)CC[C@H](NC(=O)CCCCCCCCCCCCCCCCCCC(=O)O)C(=O)O)C(=O)N[C@@H](CC(N)=O)C(=O)N[C@@H]([C@@H](C)O)C(=O)N[C@@H](C)C(=O)N[C@@H]([C@@H](C)O)C(=O)N1)[C@@H](C)O)C(=O)N1CCC[C@H]1C(=O)N[C@@H](CO)C(=O)N[C@@H](CO)C(=O)N[C@H](C(=O)N[C@@H](CC(N)=O)C(=O)N[C@H](C(=O)NCC(=O)N[C@@H](CO)C(=O)N[C@@H](CCC(=O)O)C(=O)N[C@H](C(=O)N[C@@H](Cc1ccc(O)cc1)C(N)=O)[C@@H](C)O)C(C)C)[C@@H](C)O, Acylated analogue of human amylin; also called compound 22)
147	41.3	90.2 nM	0.614 nM	K([γGlu-C20 diacid])CNTATCATQRLANFLRHSSPNFGAIPSSTNVGSETY-NH2 (disulfide 2-7; N-terminus assumed; SMILES CC[C@H](C)[C@H](NC(=O)[C@H](C)NC(=O)CNC(=O)[C@H](Cc1ccccc1)NC(=O)[C@H](CC(N)=O)NC(=O)[C@@H]1CCCN1C(=O)[C@H](CO)NC(=O)[C@H](CO)NC(=O)[C@H](Cc1c[nH]cn1)NC(=O)[C@H](CCCNC(=N)N)NC(=O)[C@H](CC(C)C)NC(=O)[C@H](Cc1ccccc1)NC(=O)[C@H](CC(N)=O)NC(=O)[C@H](C)NC(=O)[C@H](CC(C)C)NC(=O)[C@H](CCCNC(=N)N)NC(=O)[C@H](CCC(N)=O)NC(=O)[C@@H](NC(=O)[C@H](C)NC(=O)[C@@H]1CSSC[C@H](NC(=O)[C@@H](N)CCCCNC(=O)CC[C@H](NC(=O)CCCCCCCCCCCCCCCCCCC(=O)O)C(=O)O)C(=O)N[C@@H](CC(N)=O)C(=O)N[C@@H]([C@@H](C)O)C(=O)N[C@@H](C)C(=O)N[C@@H]([C@@H](C)O)C(=O)N1)[C@@H](C)O)C(=O)N1CCC[C@H]1C(=O)N[C@@H](CO)C(=O)N[C@@H](CO)C(=O)N[C@H](C(=O)N[C@@H](CC(N)=O)C(=O)N[C@H](C(=O)NCC(=O)N[C@@H](CO)C(=O)N[C@@H](CCC(=O)O)C(=O)N[C@H](C(=O)N[C@@H](Cc1ccc(O)cc1)C(N)=O)[C@@H](C)O)C(C)C)[C@@H](C)O, Acylated analogue of human amylin; also called compound 27) [N^ε1-[(4S)-4-carboxy-4-(19-carboxynonadecanoylamino)butanoyl]-[Arg17,Pro21,Pro27,Glu35]-h-amylin]

Continued, binder first:

Binder	Ratio rCT/rAmylin binding (rat calcitonin receptor [1])	Ratio hCT/hAmylin binding [2]	IC50 (rat calcitonin receptor [3])	IC50 [4]
K([AEEA-AEEA-γGlu-C20 diacid])CNTATCATQRLANFLRHSSPNFGAIPSSTNVGSETY-NH2 (disulfide 2-7; N-terminus assumed; SMILES CC[C@H](C)[C@H](NC(=O)[C@H](C)NC(=O)CNC(=O)[C@H](Cc1ccccc1)NC(=O)[C@H](CC(N)=O)NC(=O)[C@@H]1CCCN1C(=O)[C@H](CO)NC(=O)[C@H](CO)NC(=O)[C@H](Cc1c[nH]cn1)NC(=O)[C@H](CCCNC(=N)N)NC(=O)[C@H](CC(C)C)NC(=O)[C@H](Cc1ccccc1)NC(=O)[C@H](CC(N)=O)NC(=O)[C@H](C)NC(=O)[C@H](CC(C)C)NC(=O)[C@H](CCCNC(=N)N)NC(=O)[C@H](CCC(N)=O)NC(=O)[C@@H](NC(=O)[C@H](C)NC(=O)[C@@H]1CSSC[C@H](NC(=O)[C@@H](N)CCCCNC(=O)COCCOCCNC(=O)COCCOCCNC(=O)CC[C@H](NC(=O)CCCCCCCCCCCCCCCCCCC(=O)O)C(=O)O)C(=O)N[C@@H](CC(N)=O)C(=O)N[C@@H]([C@@H](C)O)C(=O)N[C@@H](C)C(=O)N[C@@H]([C@@H](C)O)C(=O)N1)[C@@H](C)O)C(=O)N1CCC[C@H]1C(=O)N[C@@H](CO)C(=O)N[C@@H](CO)C(=O)N[C@H](C(=O)N[C@@H](CC(N)=O)C(=O)N[C@H](C(=O)NCC(=O)N[C@@H](CO)C(=O)N[C@@H](CCC(=O)O)C(=O)N[C@H](C(=O)N[C@@H](Cc1ccc(O)cc1)C(N)=O)[C@@H](C)O)C(C)C)[C@@H](C)O, Acylated analogue of human amylin; also called compound 25)	37.7	56.5	131 nM	3.48 nM
K([AEEA-γGlu-C20 diacid])CNTATCATQRLANFLRHSSPNFGAIPSSTNVGSETY-NH2 (disulfide 2-7; N-terminus assumed; SMILES CC[C@H](C)[C@H](NC(=O)[C@H](C)NC(=O)CNC(=O)[C@H](Cc1ccccc1)NC(=O)[C@H](CC(N)=O)NC(=O)[C@@H]1CCCN1C(=O)[C@H](CO)NC(=O)[C@H](CO)NC(=O)[C@H](Cc1c[nH]cn1)NC(=O)[C@H](CCCNC(=N)N)NC(=O)[C@H](CC(C)C)NC(=O)[C@H](Cc1ccccc1)NC(=O)[C@H](CC(N)=O)NC(=O)[C@H](C)NC(=O)[C@H](CC(C)C)NC(=O)[C@H](CCCNC(=N)N)NC(=O)[C@H](CCC(N)=O)NC(=O)[C@@H](NC(=O)[C@H](C)NC(=O)[C@@H]1CSSC[C@H](NC(=O)[C@@H](N)CCCCNC(=O)COCCOCCNC(=O)CC[C@H](NC(=O)CCCCCCCCCCCCCCCCCCC(=O)O)C(=O)O)C(=O)N[C@@H](CC(N)=O)C(=O)N[C@@H]([C@@H](C)O)C(=O)N[C@@H](C)C(=O)N[C@@H]([C@@H](C)O)C(=O)N1)[C@@H](C)O)C(=O)N1CCC[C@H]1C(=O)N[C@@H](CO)C(=O)N[C@@H](CO)C(=O)N[C@H](C(=O)N[C@@H](CC(N)=O)C(=O)N[C@H](C(=O)NCC(=O)N[C@@H](CO)C(=O)N[C@@H](CCC(=O)O)C(=O)N[C@H](C(=O)N[C@@H](Cc1ccc(O)cc1)C(N)=O)[C@@H](C)O)C(C)C)[C@@H](C)O, Acylated analogue of human amylin; also called compound 26)	309	47.5	152 nM	0.491 nM
